Our source for the Kd values is publication PMC2807882, “Conservation of DNA-binding specificity and oligomerisation properties within the p53 family”.

What all share (experiment): fluorescence anisotropy direct titration; 25 mM sodium phosphate (purification buffer pH 7.2), 225 mM NaCl, 10% v/v glycerol, 5 mM DTT, 0.2 mg/mL BSA, 22 C
Conditions in all cases: protein: recombinant; tags: N-terminal 6xHis-lipoyl-TEV tag, cleaved; chain copies: 4; label: 5'-Alexa488
For orientation: In fluorescence polarisation assays a small probe gives low polarisation when free and higher when bound to something large.

One series addresses T1, Drp53 (Danio rerio, UniProt P79734 1-373).
T1 sequence: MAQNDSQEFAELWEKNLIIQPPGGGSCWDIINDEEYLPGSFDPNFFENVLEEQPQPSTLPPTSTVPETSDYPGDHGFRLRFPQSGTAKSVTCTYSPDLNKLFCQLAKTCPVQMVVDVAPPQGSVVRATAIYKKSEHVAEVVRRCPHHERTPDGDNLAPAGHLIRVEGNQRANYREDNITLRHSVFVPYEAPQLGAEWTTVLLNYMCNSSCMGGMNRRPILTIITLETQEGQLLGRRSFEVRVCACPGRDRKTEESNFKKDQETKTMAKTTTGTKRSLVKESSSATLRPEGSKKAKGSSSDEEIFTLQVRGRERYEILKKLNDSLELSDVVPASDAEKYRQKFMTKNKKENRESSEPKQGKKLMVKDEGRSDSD

In the next series the target is T2, ΔNp63γ (Homo sapiens, UniProt Q9H3D4-6 1-393).
T2 sequence: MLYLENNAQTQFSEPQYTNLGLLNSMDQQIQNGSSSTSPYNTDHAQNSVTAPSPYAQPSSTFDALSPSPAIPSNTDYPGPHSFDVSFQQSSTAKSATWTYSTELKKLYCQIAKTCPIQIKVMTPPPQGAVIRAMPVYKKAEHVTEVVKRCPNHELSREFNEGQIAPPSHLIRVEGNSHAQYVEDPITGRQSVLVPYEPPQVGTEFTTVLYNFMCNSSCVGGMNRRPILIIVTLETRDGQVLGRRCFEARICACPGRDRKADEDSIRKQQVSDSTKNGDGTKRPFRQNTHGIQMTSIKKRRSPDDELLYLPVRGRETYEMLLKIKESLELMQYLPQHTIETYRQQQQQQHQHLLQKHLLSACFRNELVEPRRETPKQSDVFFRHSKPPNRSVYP

In the next series the target is Mmp53 (Mus musculus, UniProt P02340 1-390).
Another series addresses T3, ΔNp63α (Homo sapiens, UniProt Q9H3D4-2 1-586).
T3 sequence: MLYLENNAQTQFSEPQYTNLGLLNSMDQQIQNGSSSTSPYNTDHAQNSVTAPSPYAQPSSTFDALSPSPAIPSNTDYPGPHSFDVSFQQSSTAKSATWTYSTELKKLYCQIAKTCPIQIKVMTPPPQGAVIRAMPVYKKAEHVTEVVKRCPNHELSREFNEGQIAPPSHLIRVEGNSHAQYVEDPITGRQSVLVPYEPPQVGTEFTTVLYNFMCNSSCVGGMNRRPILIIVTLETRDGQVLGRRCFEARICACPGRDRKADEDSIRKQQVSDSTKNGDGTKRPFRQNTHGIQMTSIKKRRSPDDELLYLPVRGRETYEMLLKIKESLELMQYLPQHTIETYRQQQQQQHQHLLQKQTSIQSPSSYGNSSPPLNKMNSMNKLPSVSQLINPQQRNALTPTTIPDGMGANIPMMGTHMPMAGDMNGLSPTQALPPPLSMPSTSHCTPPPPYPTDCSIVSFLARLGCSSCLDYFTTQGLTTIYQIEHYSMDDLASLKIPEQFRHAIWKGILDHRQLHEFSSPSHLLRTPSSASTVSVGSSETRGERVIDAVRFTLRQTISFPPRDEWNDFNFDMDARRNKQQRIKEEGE

The target in another series is T4, Dmp53 (Drosophila melanogaster, UniProt Q9N6D8 1-385).
T4 sequence: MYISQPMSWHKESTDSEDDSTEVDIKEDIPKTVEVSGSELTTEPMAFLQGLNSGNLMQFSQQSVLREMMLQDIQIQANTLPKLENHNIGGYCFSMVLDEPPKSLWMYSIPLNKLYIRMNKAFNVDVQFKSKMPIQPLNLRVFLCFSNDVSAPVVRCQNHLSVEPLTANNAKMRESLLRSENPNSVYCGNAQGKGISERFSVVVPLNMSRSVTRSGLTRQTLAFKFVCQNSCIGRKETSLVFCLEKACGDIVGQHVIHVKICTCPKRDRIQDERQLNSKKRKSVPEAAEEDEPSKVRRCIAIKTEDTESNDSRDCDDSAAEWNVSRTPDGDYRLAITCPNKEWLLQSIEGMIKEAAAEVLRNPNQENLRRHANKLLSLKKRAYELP

The next series has as its target T5, ΔNp73β (Homo sapiens, UniProt O15350-9 1-450).
T5 sequence: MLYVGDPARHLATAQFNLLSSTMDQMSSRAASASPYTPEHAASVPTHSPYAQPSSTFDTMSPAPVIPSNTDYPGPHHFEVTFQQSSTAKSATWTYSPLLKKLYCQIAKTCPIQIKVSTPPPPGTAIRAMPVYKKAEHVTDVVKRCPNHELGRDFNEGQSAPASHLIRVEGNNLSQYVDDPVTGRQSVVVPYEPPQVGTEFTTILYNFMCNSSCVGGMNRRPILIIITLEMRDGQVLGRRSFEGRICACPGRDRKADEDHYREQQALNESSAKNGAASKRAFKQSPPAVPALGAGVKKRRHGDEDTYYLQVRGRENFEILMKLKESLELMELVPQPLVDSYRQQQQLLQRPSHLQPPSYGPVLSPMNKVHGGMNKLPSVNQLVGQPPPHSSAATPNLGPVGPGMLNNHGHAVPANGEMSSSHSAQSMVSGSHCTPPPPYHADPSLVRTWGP

The next series concerns the target Xlp53 (Xenopus laevis, UniProt Q7T1D0 1-362).

Xlp53, sequence (Q7T1D0 entry or part of it): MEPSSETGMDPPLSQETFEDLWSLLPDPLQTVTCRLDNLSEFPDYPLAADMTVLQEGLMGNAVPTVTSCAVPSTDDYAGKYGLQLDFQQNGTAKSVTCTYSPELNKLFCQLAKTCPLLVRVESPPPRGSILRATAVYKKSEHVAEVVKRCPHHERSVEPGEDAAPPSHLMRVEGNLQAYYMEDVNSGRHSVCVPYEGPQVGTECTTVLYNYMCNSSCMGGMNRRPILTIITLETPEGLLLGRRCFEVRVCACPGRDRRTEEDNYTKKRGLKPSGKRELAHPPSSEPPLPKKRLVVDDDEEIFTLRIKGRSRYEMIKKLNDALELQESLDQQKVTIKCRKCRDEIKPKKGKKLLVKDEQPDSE
Mmp53, sequence (P02340 whole entry): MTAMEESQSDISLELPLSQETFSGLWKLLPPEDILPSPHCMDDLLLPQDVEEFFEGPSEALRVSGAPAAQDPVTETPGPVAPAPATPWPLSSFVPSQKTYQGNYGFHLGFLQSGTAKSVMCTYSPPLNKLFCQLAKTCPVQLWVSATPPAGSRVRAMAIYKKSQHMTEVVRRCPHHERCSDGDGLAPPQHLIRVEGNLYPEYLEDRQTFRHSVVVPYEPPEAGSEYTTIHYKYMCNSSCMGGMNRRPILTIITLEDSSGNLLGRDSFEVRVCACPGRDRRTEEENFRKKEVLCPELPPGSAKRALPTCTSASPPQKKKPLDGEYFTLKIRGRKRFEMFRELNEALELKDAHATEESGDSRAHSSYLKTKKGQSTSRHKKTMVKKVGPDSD

B1: Ref_Alexa488 (dsDNA)
DNA 1: GGACATGTCCGGACATGTCC
DNA 2: GGACATGTCCGGACATGTCC
For orientation: Kd means the concentration at which binding is half-saturated. On to B1, for which the Kd in the series with Drp53 came to 63.1 nM; with ΔNp63γ, 67.6 nM; with Mmp53, 95.5 nM; in the series with ΔNp63α, 75.9 nM; with Dmp53, 52.5 nM; with ΔNp73β, 55 nM. Further, the Kd with Xlp53 came to 47.9 nM.
